Here are results for six molecules from patent US20260217813A1 (published 2026).

For assay [1], the target named is T1, IL-12 (Human IL12 (His Tag)), Sino Biological Cat. No. CT-050-H08H-20 (human, UniProt P29460 23-328; P29459 23-219).
T1 construct: Bought His-tagged p35/p40 heterodimer
T1 sequence (looked up) 1: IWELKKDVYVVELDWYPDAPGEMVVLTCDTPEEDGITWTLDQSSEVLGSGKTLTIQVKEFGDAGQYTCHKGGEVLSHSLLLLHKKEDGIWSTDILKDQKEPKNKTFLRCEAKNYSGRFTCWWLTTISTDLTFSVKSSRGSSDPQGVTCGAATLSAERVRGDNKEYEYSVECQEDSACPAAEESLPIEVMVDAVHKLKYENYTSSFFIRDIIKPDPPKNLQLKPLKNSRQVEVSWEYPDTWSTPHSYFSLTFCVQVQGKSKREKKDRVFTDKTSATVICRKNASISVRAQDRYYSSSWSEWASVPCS
T1 sequence (looked up) 2: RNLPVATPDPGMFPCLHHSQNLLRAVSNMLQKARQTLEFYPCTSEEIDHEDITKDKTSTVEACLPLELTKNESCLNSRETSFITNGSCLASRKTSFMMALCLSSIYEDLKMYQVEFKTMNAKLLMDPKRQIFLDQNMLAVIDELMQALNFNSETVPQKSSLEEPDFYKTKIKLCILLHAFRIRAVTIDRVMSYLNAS
As to the kind of experiment: FACS competition, IL-12-His 20 nM on 293T-IL-12RB1&IL-23R cells, antibody 10 µg/mL. As to the method:
(§1) 200 μL of 1% PBSA was added into each sample, and the mixture was centrifuged at 700×g for 5 min to discard the supernatant. According to experiment design, correspondingly diluted antibody (highest final concentration of 30 μg/mL, 3-fold dilution, 8 concentrations in total) and human IL-12 (Sino Biological, Cat. No.: CT-050-H08H-20) (final concentration of 20 nM) were mixed at a ratio of 1:1, and a blank control was set. The mixture of antibody and human IL12 was incubated on ice for 30 min and then added to the cell precipitate at 100 μL/sample. The resulting mixture was well mixed and incubated on ice for 60 min. 200 μL of 1% PBSA was added, and the mixture was centrifuged at 700×g for 5 min to discard the supernatant, and then washed twice. Alexa Fluor® 488 anti-His tag antibody (Biolegend, Cat. No.: 652509) was diluted at a ratio of 1:400 and added to each tube at 100 μL. The mixture was well mixed and incubated on ice for 40 min in the absence of light. 200 μL of 1% PBSA was added, and the mixture was centrifuged at 700×g for 5 min to discard the supernatant, and then washed twice. 1% PBSA was added at 200 μL/tube, and the cells were resuspended and transferred to a flow cytometry tube for testing.

Assay [2] deals with T1, IL-12 (Human IL12 (His Tag)), Sino …. As to the kind of experiment: FACS competition, IL-12-His 20 nM on 293T-IL-12RB1&IL-23R cells, antibody 0.04 µg/mL. As to the method:
as §1

Assay [3] shares this target. As to the kind of experiment: FACS competition, IL-12-His 20 nM on 293T-IL-12RB1&IL-23R cells, antibody 0.12 µg/mL. As to the method:
as §1

For assay [4] the target is unchanged. In words: FACS competition, IL-12-His 20 nM on 293T-IL-12RB1&IL-23R cells, antibody 0.37 µg/mL. As to the method:
as §1

In assay [5] the target is T2, human IL-23 (IL-23-His-Biotin, Akesobio, 20161209) (human, UniProt Q9NPF7 20-189; P29460 23-328).
T2 construct: His-tagged and biotinylated; also called human IL23-His-Biotin
T2 sequence (looked up) 1: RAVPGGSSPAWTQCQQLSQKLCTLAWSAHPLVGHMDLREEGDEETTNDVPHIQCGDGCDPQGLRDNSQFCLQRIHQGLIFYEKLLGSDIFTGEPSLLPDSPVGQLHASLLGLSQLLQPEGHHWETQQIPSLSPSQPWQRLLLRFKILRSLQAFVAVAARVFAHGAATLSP
T2 sequence (looked up) 2: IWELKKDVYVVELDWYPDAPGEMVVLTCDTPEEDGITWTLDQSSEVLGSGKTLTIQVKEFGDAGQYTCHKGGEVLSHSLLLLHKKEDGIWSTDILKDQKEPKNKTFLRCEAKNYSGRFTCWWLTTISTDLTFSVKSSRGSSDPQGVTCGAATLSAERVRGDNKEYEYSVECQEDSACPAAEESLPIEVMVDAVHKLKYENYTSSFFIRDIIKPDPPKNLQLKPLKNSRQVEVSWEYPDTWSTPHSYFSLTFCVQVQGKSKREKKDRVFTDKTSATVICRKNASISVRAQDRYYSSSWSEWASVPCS
In words: FACS competition, IL-23-His-Biotin 2 µg/mL on 293T-IL-12RB1&IL-23R cells, antibody 10 µg/mL. How it is done:
(§2) 2.1. […] 200 μL of 1% PBSA was added into each sample, and the mixture was centrifuged at 700×g for 5 min to discard the supernatant. According to experiment design, correspondingly diluted antibody (highest final concentration of 30 μg/mL, 3-fold dilution, 8 concentrations in total) and human IL-23 (IL-23-His-Biotin, Akesobio, 20161209) (final concentration of 2 μg/mL) were mixed at a ratio of 1:1, and a blank control was set. The mixture of antibody and human IL23 was incubated on ice for 30 min and then added to the cell precipitate at 100 μL/sample. The resulting mixture was well mixed and incubated on ice for 60 min. 200 μL of 1% PBSA was added, and the mixture was centrifuged at 700×g for 5 min to discard the supernatant, and then washed twice. FITC Streptavidin (Biolegend, Cat. No.: 405202) was diluted at a ratio of 1:500 and added to each tube at 100 μL. The mixture was well mixed and incubated on ice for 40 min in the absence of light. 200 μL of 1% PBSA was added, and the mixture was centrifuged at 700×g for 5 min to discard the supernatant, and then washed twice. 1% PBSA was added at 200 μL/tube, and the cells were resuspended and transferred to a flow cytometry tube for testing.

The target in assay [6] is T2, human IL-23 (IL-23-His-Biotin, …). As to the kind of experiment: FACS competition, IL-23-His-Biotin 2 µg/mL on 293T-IL-12RB1&IL-23R cells, antibody 0.01 µg/mL. How it is done: as §2
For assay [7] the target is unchanged. As to the kind of experiment: FACS competition, IL-23-His-Biotin 2 µg/mL on 293T-IL-12RB1&IL-23R cells, antibody 1.11 µg/mL. How it is done: as §2
For assay [8] the target is unchanged. In words: FACS competition, IL-23-His-Biotin 2 µg/mL on 293T-IL-12RB1&IL-23R cells, antibody 3.33 µg/mL. As to the method:
as §2

B1: H5L9 (antibody, human IgG1, kappa, V domains shown)
VH: EVQLVQSGAEVKKPGESLKISCQSSGYSFTTYWIGWVRQMPGQGLEWIGIMSPVDSDIRYNPMFRGQVTMSVDKSSSTAYLQWSSLKASDTAMYYCARRRPGQGYFDFWGQGTMVTVSS
VL: DIQMTQSPSSLSASVGDRVTITCKASQNVGSWLAWYQQKPGKAPKSLIYSASSRQSGVPSRFSGSGSGTDFTLTISSLQPEDFATYYCQQYDIYPFTFGQGTKLEIKR
notes: Humanized anti-human IL-12/IL-23 p40 antibody; IgG1 (P01857) / kappa (P01834) constant regions
As to B1, the MFI in assay [1] came to 134; in assay [2], 158; in assay [3], 160; in assay [4], 159; in assay [5], 136; in assay [6] it was 222. For the same molecule, the figures for the MFI in assay [7] and in assay [8] were 184 and 153, respectively.

B2: H5L10 (antibody, human IgG1, kappa, V domains shown)
VH: EVQLVQSGAEVKKPGESLKISCQSSGYSFTTYWIGWVRQMPGQGLEWIGIMSPVDSDIRYNPMFRGQVTMSVDKSSSTAYLQWSSLKASDTAMYYCARRRPGQGYFDFWGQGTMVTVSS
VL: EIVLTQSPATLSASPGERATISCRASQSVGSWLAWYQQKPGQAPRSLIYAASNLQSGIPARFSGSGSGTDFTLTISSLEPEDFAVYYCQQYNIYPYTFGQGTRLEIKR
notes: IgG1/kappa
For the molecule B2, the MFI in assay [1] came out at 34.1; in assay [2], 154; in assay [3], 151; in assay [4], 87.5; in assay [5], 12.7; in assay [6], 223. The MFI in assay [7] came to 81.6; in assay [8], 15.7.

B3: H5L14 (antibody, human IgG1, kappa, V domains shown)
VH: EVQLVQSGAEVKKPGESLKISCQSSGYSFTTYWIGWVRQMPGQGLEWIGIMSPVDSDIRYNPMFRGQVTMSVDKSSSTAYLQWSSLKASDTAMYYCARRRPGQGYFDFWGQGTMVTVSS
VL: EIVLTQSPATLSASPGERATISCRASQSVSSWLAWYQQKPGQAPRSLIYAASNLQSGIPARFSGSGSGTDFTLTISSLEPEDFAVYYCQQYNIYPFTFGQGTRLEIKR
notes: IgG1/kappa
Take B3: the MFI in assay [1] amounted to 46.3; in assay [2] it was 155; in assay [3], 146; in assay [4] it was 113; in assay [5], 16.7; in assay [6], 218. Moreover, the MFI in assay [7] was determined as 95.6; in assay [8] it was 23.6.

B4: H5L12 (antibody, human IgG1, kappa, V domains shown)
VH: EVQLVQSGAEVKKPGESLKISCQSSGYSFTTYWIGWVRQMPGQGLEWIGIMSPVDSDIRYNPMFRGQVTMSVDKSSSTAYLQWSSLKASDTAMYYCARRRPGQGYFDFWGQGTMVTVSS
VL: EIVLTQSPATLSASPGERATISCRASQSVSSWLAWYQQKPGQAPRSLIYAASNRQSGIPARFSGSGSGTDFTLTISSLEPEDFAVYYCQQYNIYPYTFGQGTRLEIKR
notes: IgG1/kappa
As for B4, the MFI in assay [1] was 32.4; in assay [2], 149; in assay [3], 133; in assay [4], 86.6; in assay [5] it was 12.7; in assay [6] it was 221. Also, the MFI in assay [7] is 88.5; in assay [8], 15.8.

B5: H5L11 (antibody, human IgG1, kappa, V domains shown)
VH: EVQLVQSGAEVKKPGESLKISCQSSGYSFTTYWIGWVRQMPGQGLEWIGIMSPVDSDIRYNPMFRGQVTMSVDKSSSTAYLQWSSLKASDTAMYYCARRRPGQGYFDFWGQGTMVTVSS
VL: EIVLTQSPATLSASPGERATISCRASQSVSSWLAWYQQKPGQAPRSLIYSASNLQSGIPARFSGSGSGTDFTLTISSLEPEDFAVYYCQQYNIYPYTFGQGTRLEIKR
notes: IgG1/kappa
With B5, the MFI in assay [1] stood at 33.9; in assay [2], 151; in assay [3], 145; in assay [4], 103; in assay [5], 14.5; in assay [6] it was 219. Besides, the MFI came out at 97.6 in assay [7] and 20.2 in assay [8].

B6: ustekinumab (trade name Stelara) (antibody, V domains shown)
VH: EVQLVQSGAEVKKPGESLKISCKGSGYSFTTYWLGWVRQMPGKGLDWIGIMSPVDSDIRYSPSFQGQVTMSVDKSITTAYLQWNSLKASDTAMYYCARRRPGQGYFDFWGQGTLVTVSS
VL: DIQMTQSPSSLSASVGDRVTITCRASQGISSWLAWYQQKPEKAPKSLIYAASSLQSGVPSRFSGSGSGTDFTLTISSLQPEDFATYYCQQYNIYPYTFGQGTKLEIK
As for B6, the MFI turned out to be 31 in assay [1]; 150 in assay [2]; 137 in assay [3]; 95.7 in assay [4]; 11.5 in assay [5]; 219 in assay [6]. Further, the MFI in assay [7] was 121; in assay [8], 13.8.
